Measurements taken from publication PMC5913134, “The IL-33-PIN1-IRAK-M axis is critical for type 2 immunity in IL-33-induced allergic airway inflammation” (Nature Communications, 2018).

Assays:
PIN1-IRAK-M interaction = assay: GST-PIN1 pulldown of IRAK-M from DC2.4 cell extracts; format: cell-based, C57BL/6; settings: 100 ng/ml, 1 h, DC2.4 extracts
Procedure: Fig. 2 IL-33 induces IRAK-M phosphorylation and binding to PIN1. a GST PIN1 pulldown assay with DC2.4 cell extracts either non-treated or treated with IL-33 (100 ng/ml) or LPS (100ng/ml) for 1 h. […] The cells were washed with fresh medium and treated with 100 ng/ml IL-33 for the indicated times prior to IRAK-M immunoprecipitation. d DC2.4 cells stably expressing IRAK-M were treated with IL-33 and at the indicated time points were subjected to CO-IP using anti-PIN1 antibody and blotted for IRAK-M. e HEK293 cells were transfected with different IRAK-M constructs expressing the N’ terminal domain (aa1-220), the middle portion of the protein (aa220-440) or the C’ terminal domain (aa 440-630), and then treated with IL-33, followed by CO-IP for PIN1. f DC2.4 cells stably expressing IRAK-M were treated with IL-33 and subjected to GST or GST-PIN1 pull-down.
Glutathione-Sepharose 4B (Amersham) coupled with glutathione S-transferase (GST) or GST-PIN1 and washed with 150 mM NaCl, 20 mM Tris-HCl (pH 8), 1 mM MgCl2, and 0.1% NP-40 was mixed with 1 mg of total protein extract for 3 h at 4 °C. The beads were then washed extensively, and the protein was eluted with 20 mM reduced glutathione. The proteins were resolved by SDS-PAGE and visualized by Western analysis or autoradiography. […]

[1] = system: Il6, Csf3, Cxcl2 and Ccl5 expression in DC2.4 cells; assay: qRT-PCR of Il6, Csf3, Cxcl2 and Ccl5 in DC2.4 cells; format: cell-based, C57BL/6; settings: IL-33, pLKO control DC2.4 cells
Procedure: Also as indicated, some cells were pretreated for 3 days with 5 μM or 10 μM of ATRA before IL-33 induction. e Relative gene expression of Il6, Csf3, Cxcl2 and Ccl5 in the different samples as in d normalized to actin. f IRAK-M was stably expressed in pLKO or TET on shPin1 expressing cells, followed by induction with IL-33, before western blot to examine protein expression of IRAK-M, PIN1 and tubulin as well as g qRT-PCR to determine the relative gene expression for Il6, Csf3, Cxcl2 and Ccl5 in the different samples.
SYBR Green PCR Master Mix (Applied Biosystems, Foster City, CA) was used for two-step real-time RT-PCR analysis on an Applied Biosystems StepOnePlus Real Time PCR instrument. […] Expression value of the targeted gene in a given sample was normalized to the corresponding expression of Actin. The 2^–ΔΔCt method was used to calculate relative expression of the targeted genes.

IRAK-M = IRAK-M protein levels in BMDCs; format: cell-based, mouse; settings: BMDC from WT and PIN1 KO mice, IL-33, time-dependent

B1: IL-33: Recombinant mouse IL-33 purchased from BioLegend (protein, UniProt Q8BVZ5 1-266, looked up)
Interleukin-33: MRPRMKYSNSKISPAKFSSTAGEALVPPCKIRRSQQKTKEFCHVYCMRLRSGLTIRKETSYFRKEPTKRYSLKSGTKHEENFSAYPRDSRKRSLLGSIQAFAASVDTLSIQGTSLLTQSPASLSTYNDQSVSFVLENGCYVINVDDSGKDQEQDQVLLRYYESPCPASQSGDGVDGKKLMVNMSPIKDTDIWLHANDKDYSVELQRGDVSPPEQAFFVLHKKSSDFVSFECKNLPGTYIGVKDNQLALVEEKDESCNNIMFKLSKI
Q: Which PIN1-IRAK-M interaction (PIN1-IRAK-M interaction) does the source give for B1 here?
A: The PIN1-IRAK-M interaction was “specific interaction”.

Q: What about the “expression of the four target genes” value [1] of the same molecule?
A: Its value is “upregulated”.

Q: And the IRAK-M protein levels (IRAK-M)?
A: Its IRAK-M protein levels is “increased IRAK-M protein levels in WT, but not PIN1 KO cells”.
